Experimental data from the supplement of paper PMC9170038.

Tested on: MS2 coat protein
Experiment: apparent KD of MS2 coat protein; designed switch direction (-1 OFF switch, 1 ON switch): -1; higher = weaker reporter binding
Summary of the method: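 On Illumina chips, designed RNA switches with common flanks were made by stalled E. coli RNA polymerase. Titrations with SNAP-549-labelled MS2 coat protein, doubling from 0.7 or 1.5 nM to 3 µM, were done with no input, with 200 uM small-molecule ligand, or with an oligonucleotide input. Apparent KD is the median per design over clusters, from curve fits of normalised cluster fluorescence.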

[1] = input ligand: microRNA oligo, concentration not stated
[2] = Eterna round: R95, input ligand: FMN 200 uM
[3] = Eterna round: R95, input ligand: microRNA oligo, concentration not stated
[4] = Eterna round: R95, input ligand: none

| Sequence | apparent KD of MS2 coat protein (input ligand: FMN 200 uM) [nM] | apparent KD of MS2 coat protein [1] [nM] | apparent KD of MS2 coat protein (input ligand: none) [nM] | apparent KD of MS2 coat protein [3] [nM] | other results |
| --- | --- | --- | --- | --- | --- |
| UAUUAGCAAGUAAGGUCCCACAUGAGGAUCACCCAUGUGCUCGUCUUAUAAGGUACUGUGACGAAAGUCACGGUACC [Sensor 3, v1 - 95] (Eterna round: R96, puzzle: Sensor v3, turn-off variant 1) | 22 | 326 | 23.6 | – | – |
| UAUUAGCAAGUAAGGUCCCACAUGAGGAUCACCCAUGUGCUCGUCUUAUAAGGUACUGUGACGAAAGUCACGGUACC [Sensor 3, v1 - 95] (puzzle: Sensor v3, turn-off variant 1) | – | – | – | 585 | apparent KD of MS2 coat protein [2]: 18.4 nM; apparent KD of MS2 coat protein [4]: 18.1 nM |
| UAUUAGCAAGUGAGAUCCCACAUGAGGAUCACCCAUGUGCUCGUCUUAUAAGGUACUGUGACGAAAGUCACGGUACC [Sensor 3, v1 - 91 v1] (Eterna round: R97, puzzle: Sensor, turn-off variant 1) | 56.2 | – | 47.6 | – | – |
| UAUUAGCAAGUGAGAUCCGACAUGAGGAUCACCCAUGUGCUCGUCUUAUAAGGUACUGUGACAAAAGUCACGGUACC [Elimod 2 - Jieux - Sensor, turn-off variant 1] (Eterna round: R97, puzzle: Sensor, turn-off variant 1) | 200 | – | 283 | – | – |
| UAUUAUUGCAAGGAUAUGCUUUUUAUUUCUUUUGCAGAAGGUGCAACAUGAGGAUCACCCAUGUUUCCGGGUAU [JR_E6_Sub033] (puzzle: Exclusion 6) | – | – | – | 20.4 | – |
| UAUUUAAUUAACAAGCUUUACAUGAGGAUCACCCAUGUGAUCAUGCUCGUCUUAUAAUUAAUUAAUUAAUUAAUUAA [Stov1/6-A2] (Eterna round: R97, puzzle: Sensor, turn-off variant 1) | 51.6 | – | 62.8 | – | – |
| UAUUUAGCAAGCAGAUCCCACAUGAGGAUCACCCAUGUUUUCUGAAAAUAAAUUAAAAUAGCUGAAGCUCGUCUUAU [Winner reversed engineered 38] (Eterna round: R97, puzzle: Sensor, turn-off variant 1) | 139 | – | 137 | – | – |
| UAUUUAUAUGAAGGAUAUACUUAACAUGAGGAUCACCCAUGUGGUGUUGUGAGUGAGUGAGUUUAGUAGAAGGUCAAUGAUUUU [JMF's solution 74] (Eterna round: R96, puzzle: Exclusion NG 2) | 870 | 286 | 311 | – | – |
| UCAACGCAAGGAUAUACUUGCGGUGAUGUUCGAAUUCUUCUACUUGAGGAUCACCCAAGUAGAAGGUGCGAUGA [jl-ex2.4.62 ViennaUCT mod] (Eterna round: R97, puzzle: Exclusion 2) | 12.5 | – | 13.4 | – | – |
| UCAAUUUUGCGAGGAUAUCGACCAUUCCUCUUUACAUGAGGAUCACCCAUGUACUUAUUCUACAACGAGAAGGCGCUCAUAGUU [JR_ExcNG2_Sub064] (Eterna round: R96, puzzle: Exclusion NG 2) | – | 30 | – | – | – |
| UCAAUUUUGCGAGGAUAUCGACCAUUCCUCUUUACAUGAGGAUCACCCAUGUUCUUUUUCUACAACGAGAAGGCGCUCAUAGUU [JR_ExcNG2_Sub063] (Eterna round: R96, puzzle: Exclusion NG 2) | – | 56.2 | – | – | – |
| UCACGGGACUAAGGAUAUAUGAGAGCCAUUAACAUAGAAGGUAGAAUGUUAGAUCAUAAACUAAACAUGAGGAUCACCCAUGUU [JR_ExcNG1_Sub093] (Eterna round: R96, puzzle: Exclusion NG 1) | 19.6 | 20.2 | 23.2 | – | – |
| UCACGGGACUGAGGAUAUACAUGAACCAUGUUUGUAGAAGGCAGAAGGUUUGAUCAUACACUAAACAUGAGGAUCACCCAUGUU [JR_ExcNG1_Sub027] (Eterna round: R96, puzzle: Exclusion NG 1) | 21.1 | 15.1 | 25.1 | – | – |
| UCACGGGAUUGAGGAUAUAUAUUAAUUUUUACAAUAGAAGGCAAAUUGUUAGAUUAUUCACUAUACAUGAGGAUCACCCAUGUU [JR_ExcBG1_Sub078] (Eterna round: R96, puzzle: Exclusion NG 1) | – | 17.6 | – | – | – |
| UCACGGGAUUGAGGAUAUAUAUUAAUUUUUUUUAUAGAAGGCAAAAUGUUAGAUUAUUCACUAUACAUGAGGAUCACCCAUGUU [JR_ExcBG1_Sub076] (Eterna round: R96, puzzle: Exclusion NG 1) | – | 18.2 | – | – | – |
| UCACGGGUUUGAGGAUAUAUAUUUAUUAUUUUAAUAGAAGGCAAAGAGAUAGUUUUUUCACUAUACAUGAGGAUCACCCAUGUU [JR_ExcNG1_Sub087] (Eterna round: R96, puzzle: Exclusion NG 1) | – | 27.6 | – | – | – |

| Sequence | apparent KD of MS2 coat protein (input ligand: FMN 200 uM) [nM] | apparent KD of MS2 coat protein [1] [nM] | apparent KD of MS2 coat protein (input ligand: none) [nM] | apparent KD of MS2 coat protein [3] [nM] | other results |
| --- | --- | --- | --- | --- | --- |
| UCACGUACAGGAUAUACAUGAGGAUCACCCAUGUGCUCGAAGGCACGCCCGAGAUUCUGUAGAAGGGUAUAGCA [Eternabot (L1) Solution 50] (Eterna round: R97, puzzle: Exclusion 3) | 38.4 | – | 32.5 | – | – |
| UCAUAACAUGAGGAUCACCCAUGUGAGGAUAUGAUACUAUGUACUUCGGUACAUAGUAUCAGAAGGCGCAUACU [Brourd's Ex1-3: 11 (nt 68 G)] (puzzle: Exclusion 1) | – | – | – | 55.2 | apparent KD of MS2 coat protein [2]: 115 nM; apparent KD of MS2 coat protein [4]: 49.1 nM |
| UCAUACGAUGAGGAUAUCUCAGUUAAAGUAUUUAGAGAAGGCGUUACAUGAGGAUCACCCAUGUUUAUGGGCAU [Ex-6 Malc#7] (puzzle: Exclusion 6) | – | – | – | 121 | apparent KD of MS2 coat protein [2]: 178 nM; apparent KD of MS2 coat protein [4]: 190 nM |
| UCAUACGGUGAGGAUAUCUCCACUAAAGUGUGAAGAGAAGGCGCUACAUGAGGAUCACCCAUGUCUAUGGGCAG [Ex-6 Malc#15] (puzzle: Exclusion 6) | – | – | – | 75 | apparent KD of MS2 coat protein [2]: 37.4 nM; apparent KD of MS2 coat protein [4]: 109 nM |
| UCAUCCGUAGGAUAUAAGAAACACAACAUGAGGAUCACCCAUGUGACCGUCAGUUAUUGCUUAGAAGGACGCGUAC [Eternabot (L1) Solution 70] (Eterna round: R97, puzzle: Exclusion 5) | 131 | – | 91.2 | – | – |
| UCAUGGAAGCAGGAUAUGCUUGUUUAAUUGUUUGCAGAAGGGCUAACAUGAGGAUCACCCAUGUGAGAGGUCUA [JR_E6_Sub064] (puzzle: Exclusion 6) | – | – | – | 33.8 | apparent KD of MS2 coat protein [2]: 20.5 nM; apparent KD of MS2 coat protein [4]: 36.7 nM |
| UCAUGGUAGCAGGAUAUGCUUGUUUUUUUUUUUGCAGAAGGGCUUACAUGAGGAUCACCCAUGUGAGAGGUCUA [JR_E6_Sub066] (puzzle: Exclusion 6) | – | – | – | 19.9 | – |
| UCAUGGUUAGAGGAUAUAUAAUUAGUCAGAACAAUAGAAGGCUAGACAUGAGGAUCACCCAUGUAUGUUGAGGU [JR_Ex6_Sub065] (Eterna round: R97, puzzle: Exclusion 6) | 42.6 | – | 89.4 | – | – |
| UCCUCACAUGAGGAUCACCCAUGUUAGGAUAUCUCGGUGCCCUGCAGGCAGUGGCACCAGAGAAGGAACGUGCA [Querra] (puzzle: Exclusion 1) | – | – | – | 18.8 | – |
| UCCUUACUGGUCAGGAUAUACAUUCGCGAGUGGGUGUAGAAGGGACAUGAGGAUCACCCAUGUACGUUACAUCC [alecazam54f] (Eterna round: R97, puzzle: Brourd's mod of Exclusion 4) | 18.3 | – | 20.5 | – | – |
| UCGACGUCGUCAGGAUAUAGUUUUAAUGUCAUGCUUUUGUUUUUACAUGAGGAUCACCCAUGUCGCUAGAAGGGACUAAAGAUU [JR_ExcNG2_Sub013] (Eterna round: R96, puzzle: Exclusion NG 2) | 36.7 | 34.1 | 41.7 | – | – |
| UCGAGGUCAGGAUAUACAUGAGGAUCACCCAUGUUGAGAUAAGGUAGGAAAAGAGUAGGUAGAAGGGACGAGAG [JR_Exclu3_Sub047] (puzzle: Exclusion 3) | – | – | – | 27.3 | – |
| UCGCGAAGAGGAUAUACAUAGAAAUAGAUUCAUGUAAAACUACAUGAGGAUCACCCAUGUAGAAGGCUUUGCGU [Mat - Exclusion 2 - JL Mod - D60] (Eterna round: R97, puzzle: Exclusion 2) | 108 | – | 17 | – | – |
| UCGCUCCGUGUAGGAUAUCGCUGUAUGAUGCGGCGAGAAGGACAUGAGGAUCACCCAUGUAUGUUAUUAUCACGCGUGGCGCAA [Design 64] (Eterna round: R96, puzzle: Exclusion NG 1) | 21.8 | 11.6 | 17.5 | – | – |
| UCGGCGCGAGGAUAUACGUUUGCUUUUUGGGAUCGUUGCGUACAUGAGGAUCACCCAUGUAGAAGGCGCGCCGC [Apr-15 SS2-26] (puzzle: Exclusion 2) | – | – | – | 15.9 | – |
| UCGGCGCGAGGAUAUGCGGCUGGUGCUUCGGGCUCUGGCGUACAUGAGGAUCACCCAUGUAGAAGGCGCGCCGC [Apr-15 SS2-42] (puzzle: Exclusion 2) | – | – | – | 10.5 | – |
